The source of these data is article doi:10.1101/2021.01.13.426456.

As usually defined, the Kd is the concentration at which binding is half-saturated.

Assay [1] concerns the target Bin1b SH3 domain (zebrafish). The assay can be described thus: ITC.
Assay [2] deals with Full length zebrafish Cavin4b (zebrafish) (UniProt Q5PQY9). The assay can be described thus: ITC.

Take “Chikungunya virus (CHIKV) proline-rich peptide”: in assay [1], the Kd worked out at 0.0889 µM. This counts as double-digit nanomolar.
On the same count and under the same terms, for Cavin4b PRD peptide the value was 61.7 µM.
Consider Bin1b SH3 domain (domain or fragment), for which the equilibrium dissociation constant (Kd) in assay [2] turned out to be 55.9 µM. This counts as double-digit micromolar.
